Our source for the Kd and IC50 values is patent US20240415889A1.

The target in assay [1] is CD94/NKG2A. Nature of the assay: BLI. For orientation: BLI is a label-free optical method that tracks binding on a fibre tip over time.
Target sequence in this assay (main, as listed by the source): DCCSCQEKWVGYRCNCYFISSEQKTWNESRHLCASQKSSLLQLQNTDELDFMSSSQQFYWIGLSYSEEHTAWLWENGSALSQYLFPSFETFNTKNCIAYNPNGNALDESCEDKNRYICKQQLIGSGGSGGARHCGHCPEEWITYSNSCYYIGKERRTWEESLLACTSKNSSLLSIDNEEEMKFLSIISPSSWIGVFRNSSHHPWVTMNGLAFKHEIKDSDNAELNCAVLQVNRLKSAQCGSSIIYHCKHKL
For assay [2], the target named is CD94/NKG2A. The assay can be described thus: reported IC50; reported value.
The target of assay [3] is CD94/NKG2A. Nature of the assay: competitive ELISA (HLA-E tetramer). Background: ELISA stands for enzyme-linked immunosorbent assay.
Target sequence in this assay (main, as listed by the source): as above
Assay [4] deals with CD94/NKG2A. The assay can be described thus: competitive ELISA (HLA-E tetramer); FIG. 26.
Target sequence in this assay (main, as listed by the source): as above

A word on the Kd: it is the constant that tells how readily two partners part at equilibrium. High values mean lower affinity, low ones higher affinity. Consider Mona analog IgG1 (LALA-PG), for which, in the assay with CD94/NKG2A [1], the Kd is 4.32 nM.
The term IC50 denotes the concentration at which inhibition is half-maximal. Low readings indicate higher potency, high ones lower potency. On to Monalizumab, for which the IC50 in the assay with CD94/NKG2A [2] came out at 2 nM; with CD94/NKG2A [3], 1.5 nM; with CD94/NKG2A [4], 1 nM.
